# Experimental data published in the supplement of paper PMC10065799, “High-throughput profiling of sequence recognition by tyrosine kinases and SH2 domains using bacterial peptide display” (eLife, 2023).
# How the values were obtained:
# [1] = target: Jak2 (UniProt O60674); experiment: phosphorylation enrichment, bacterial display (enrichment ratio); higher = better substrate or ligand; peptides without Tyr show the background
# [2] = target: Fes (UniProt P07332); experiment: as above
# [3] = test system: AncSZ; experiment: as above
# [4] = test system: c-Src; experiment: as above
# [5] = target: FGFR1 (UniProt P11362); experiment: as above
# [6] = test system: c-Abl (mouse); experiment: as above
# [7] = target: MERTK (UniProt Q12866); experiment: as above
# [8] = target: Hck (UniProt P08631); experiment: as above
# [9] = target: EPHB1 (UniProt P54762); experiment: as above
# [10] = test system: Fer (mouse); experiment: as above
# [11] = target: Fyn (UniProt P06241); experiment: as above
# [12] = target: EPHB2 (UniProt P29323); experiment: as above
# [13] = target: FGFR3 (UniProt P22607); experiment: as above
# [14] = target: c-Src SH2; experiment: SH2 binding enrichment of the phosphorylated peptide, bacterial display (enrichment ratio); higher = better substrate or ligand; peptides without Tyr show the background
# [15] = target: Grb2 SH2 (UniProt P62993); experiment: as above
# [16] = target: SHP2-C SH2; experiment: as above
# 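Throughout, for SH2 binding enrichment of the phosphorylated peptide, bacterial display: peptide library displayed on the E. coli surface as eCPX fusions, selected cells deep-sequenced, score is each peptide's frequency after selection divided by its frequency in the input.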
# 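Throughout, for phosphorylation enrichment, bacterial display: 11-residue human phosphosite peptides and single-mutation variants displayed on the E. coli surface, counted by deep sequencing, each peptide's frequency after selection divided by its frequency in the unselected input library; frequency after pTyr selection over input frequency; kinase dosed for 20-30% of maximal phosphorylation in three min.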
# Chain of EPHB1 (P54762 whole entry, looked up): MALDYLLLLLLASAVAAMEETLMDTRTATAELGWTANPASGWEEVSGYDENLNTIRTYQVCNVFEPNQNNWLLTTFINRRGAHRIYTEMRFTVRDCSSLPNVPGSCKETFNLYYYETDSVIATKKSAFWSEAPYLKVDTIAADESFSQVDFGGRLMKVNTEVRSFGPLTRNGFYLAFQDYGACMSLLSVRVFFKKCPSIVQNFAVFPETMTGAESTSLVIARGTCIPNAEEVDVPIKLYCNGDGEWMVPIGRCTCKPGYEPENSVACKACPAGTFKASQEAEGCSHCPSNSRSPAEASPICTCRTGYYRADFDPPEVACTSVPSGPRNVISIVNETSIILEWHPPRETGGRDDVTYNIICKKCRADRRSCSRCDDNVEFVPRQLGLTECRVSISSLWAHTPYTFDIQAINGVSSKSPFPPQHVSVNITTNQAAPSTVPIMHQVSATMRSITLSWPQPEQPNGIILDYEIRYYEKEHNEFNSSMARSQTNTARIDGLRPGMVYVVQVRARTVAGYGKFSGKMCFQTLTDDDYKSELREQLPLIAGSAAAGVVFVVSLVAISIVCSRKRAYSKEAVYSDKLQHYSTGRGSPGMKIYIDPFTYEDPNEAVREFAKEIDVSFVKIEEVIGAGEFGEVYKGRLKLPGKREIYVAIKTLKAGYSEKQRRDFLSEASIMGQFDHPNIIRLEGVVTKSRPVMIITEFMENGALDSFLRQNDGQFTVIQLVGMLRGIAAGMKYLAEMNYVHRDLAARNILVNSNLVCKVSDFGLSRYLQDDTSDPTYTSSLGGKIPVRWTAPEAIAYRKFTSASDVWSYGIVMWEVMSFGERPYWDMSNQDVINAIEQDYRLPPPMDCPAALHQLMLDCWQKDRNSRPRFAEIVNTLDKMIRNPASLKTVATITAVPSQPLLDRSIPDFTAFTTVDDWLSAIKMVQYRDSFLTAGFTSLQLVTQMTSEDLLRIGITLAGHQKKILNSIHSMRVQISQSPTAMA
# Chain of FGFR3 (P22607 whole entry, looked up): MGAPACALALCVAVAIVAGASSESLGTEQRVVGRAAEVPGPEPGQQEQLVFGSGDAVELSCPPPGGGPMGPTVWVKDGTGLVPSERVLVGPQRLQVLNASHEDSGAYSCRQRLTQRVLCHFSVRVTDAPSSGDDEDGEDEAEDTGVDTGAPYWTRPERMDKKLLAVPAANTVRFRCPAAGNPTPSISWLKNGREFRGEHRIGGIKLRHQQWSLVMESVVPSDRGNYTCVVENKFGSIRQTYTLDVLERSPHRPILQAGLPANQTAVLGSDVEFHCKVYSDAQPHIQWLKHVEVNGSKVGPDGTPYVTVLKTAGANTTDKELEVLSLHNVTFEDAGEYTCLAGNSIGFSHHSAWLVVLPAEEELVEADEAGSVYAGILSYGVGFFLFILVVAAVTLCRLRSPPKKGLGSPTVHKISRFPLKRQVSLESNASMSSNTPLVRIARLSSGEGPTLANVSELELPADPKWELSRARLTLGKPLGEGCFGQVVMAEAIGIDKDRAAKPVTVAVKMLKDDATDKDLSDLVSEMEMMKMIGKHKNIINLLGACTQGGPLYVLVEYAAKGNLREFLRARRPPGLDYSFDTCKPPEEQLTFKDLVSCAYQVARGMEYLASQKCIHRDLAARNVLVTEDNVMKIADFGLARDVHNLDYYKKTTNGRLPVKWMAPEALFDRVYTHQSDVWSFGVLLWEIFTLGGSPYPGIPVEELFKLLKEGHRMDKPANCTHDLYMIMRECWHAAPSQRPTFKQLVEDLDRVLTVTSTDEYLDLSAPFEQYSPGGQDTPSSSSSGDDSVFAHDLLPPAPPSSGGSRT
# Chain of Fes (P07332 whole entry, looked up): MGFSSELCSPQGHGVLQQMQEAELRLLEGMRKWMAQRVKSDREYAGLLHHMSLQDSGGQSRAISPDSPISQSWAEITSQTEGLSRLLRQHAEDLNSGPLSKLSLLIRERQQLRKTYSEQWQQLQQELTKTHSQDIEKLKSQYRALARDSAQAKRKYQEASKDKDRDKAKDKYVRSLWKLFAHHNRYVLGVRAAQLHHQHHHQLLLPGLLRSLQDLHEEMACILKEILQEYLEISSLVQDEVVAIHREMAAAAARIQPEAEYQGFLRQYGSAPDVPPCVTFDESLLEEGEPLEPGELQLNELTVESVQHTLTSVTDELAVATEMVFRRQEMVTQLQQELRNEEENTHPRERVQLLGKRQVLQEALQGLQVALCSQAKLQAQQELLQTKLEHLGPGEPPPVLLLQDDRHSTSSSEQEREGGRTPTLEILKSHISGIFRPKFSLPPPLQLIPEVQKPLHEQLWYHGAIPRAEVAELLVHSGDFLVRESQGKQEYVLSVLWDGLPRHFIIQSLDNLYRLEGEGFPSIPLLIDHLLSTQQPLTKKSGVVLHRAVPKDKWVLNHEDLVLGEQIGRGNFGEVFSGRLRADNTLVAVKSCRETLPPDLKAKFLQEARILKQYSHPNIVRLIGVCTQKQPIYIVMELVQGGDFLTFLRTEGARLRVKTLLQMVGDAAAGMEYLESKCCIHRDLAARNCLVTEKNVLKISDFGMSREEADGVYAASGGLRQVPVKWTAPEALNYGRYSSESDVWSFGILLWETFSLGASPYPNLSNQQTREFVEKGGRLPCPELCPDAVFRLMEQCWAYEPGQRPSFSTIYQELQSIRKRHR
# Chain of Jak2 (O60674 whole entry, looked up): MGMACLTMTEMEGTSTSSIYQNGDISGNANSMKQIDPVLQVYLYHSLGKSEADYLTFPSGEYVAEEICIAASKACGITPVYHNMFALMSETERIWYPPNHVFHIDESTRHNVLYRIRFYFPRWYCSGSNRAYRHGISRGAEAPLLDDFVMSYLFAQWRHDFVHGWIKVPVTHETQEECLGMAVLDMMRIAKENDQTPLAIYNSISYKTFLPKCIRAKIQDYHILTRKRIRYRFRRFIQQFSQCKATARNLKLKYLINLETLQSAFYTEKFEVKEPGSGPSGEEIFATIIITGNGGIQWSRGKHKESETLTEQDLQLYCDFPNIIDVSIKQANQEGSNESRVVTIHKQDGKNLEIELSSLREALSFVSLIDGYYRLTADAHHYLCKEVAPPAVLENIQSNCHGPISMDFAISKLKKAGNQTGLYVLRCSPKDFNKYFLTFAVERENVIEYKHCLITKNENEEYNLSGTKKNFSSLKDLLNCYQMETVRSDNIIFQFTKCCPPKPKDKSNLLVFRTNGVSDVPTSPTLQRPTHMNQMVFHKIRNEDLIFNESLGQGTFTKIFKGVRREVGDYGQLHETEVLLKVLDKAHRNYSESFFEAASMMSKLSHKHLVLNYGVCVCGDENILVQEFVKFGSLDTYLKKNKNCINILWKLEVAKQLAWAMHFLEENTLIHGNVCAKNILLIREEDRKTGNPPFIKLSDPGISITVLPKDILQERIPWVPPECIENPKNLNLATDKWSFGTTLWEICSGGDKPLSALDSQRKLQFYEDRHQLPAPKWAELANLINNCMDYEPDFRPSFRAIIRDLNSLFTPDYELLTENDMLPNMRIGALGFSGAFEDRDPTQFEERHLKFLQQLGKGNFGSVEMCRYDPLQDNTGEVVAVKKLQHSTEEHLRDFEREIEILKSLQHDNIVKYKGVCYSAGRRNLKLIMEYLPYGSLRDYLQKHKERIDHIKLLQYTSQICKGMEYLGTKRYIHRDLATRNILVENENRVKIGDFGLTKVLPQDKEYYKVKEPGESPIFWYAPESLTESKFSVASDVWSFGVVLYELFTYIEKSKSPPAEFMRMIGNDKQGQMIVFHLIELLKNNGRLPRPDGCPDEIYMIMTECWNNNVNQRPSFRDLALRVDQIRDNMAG
# Chain of Grb2 SH2 (P62993 whole entry, looked up): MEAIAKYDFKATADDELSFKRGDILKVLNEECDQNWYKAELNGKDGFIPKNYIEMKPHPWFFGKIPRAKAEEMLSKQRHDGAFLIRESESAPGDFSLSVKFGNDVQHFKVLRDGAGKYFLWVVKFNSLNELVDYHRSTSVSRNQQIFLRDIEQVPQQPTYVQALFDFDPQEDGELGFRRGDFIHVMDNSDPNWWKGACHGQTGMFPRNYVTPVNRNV
# Chain of MERTK (Q12866 whole entry, looked up): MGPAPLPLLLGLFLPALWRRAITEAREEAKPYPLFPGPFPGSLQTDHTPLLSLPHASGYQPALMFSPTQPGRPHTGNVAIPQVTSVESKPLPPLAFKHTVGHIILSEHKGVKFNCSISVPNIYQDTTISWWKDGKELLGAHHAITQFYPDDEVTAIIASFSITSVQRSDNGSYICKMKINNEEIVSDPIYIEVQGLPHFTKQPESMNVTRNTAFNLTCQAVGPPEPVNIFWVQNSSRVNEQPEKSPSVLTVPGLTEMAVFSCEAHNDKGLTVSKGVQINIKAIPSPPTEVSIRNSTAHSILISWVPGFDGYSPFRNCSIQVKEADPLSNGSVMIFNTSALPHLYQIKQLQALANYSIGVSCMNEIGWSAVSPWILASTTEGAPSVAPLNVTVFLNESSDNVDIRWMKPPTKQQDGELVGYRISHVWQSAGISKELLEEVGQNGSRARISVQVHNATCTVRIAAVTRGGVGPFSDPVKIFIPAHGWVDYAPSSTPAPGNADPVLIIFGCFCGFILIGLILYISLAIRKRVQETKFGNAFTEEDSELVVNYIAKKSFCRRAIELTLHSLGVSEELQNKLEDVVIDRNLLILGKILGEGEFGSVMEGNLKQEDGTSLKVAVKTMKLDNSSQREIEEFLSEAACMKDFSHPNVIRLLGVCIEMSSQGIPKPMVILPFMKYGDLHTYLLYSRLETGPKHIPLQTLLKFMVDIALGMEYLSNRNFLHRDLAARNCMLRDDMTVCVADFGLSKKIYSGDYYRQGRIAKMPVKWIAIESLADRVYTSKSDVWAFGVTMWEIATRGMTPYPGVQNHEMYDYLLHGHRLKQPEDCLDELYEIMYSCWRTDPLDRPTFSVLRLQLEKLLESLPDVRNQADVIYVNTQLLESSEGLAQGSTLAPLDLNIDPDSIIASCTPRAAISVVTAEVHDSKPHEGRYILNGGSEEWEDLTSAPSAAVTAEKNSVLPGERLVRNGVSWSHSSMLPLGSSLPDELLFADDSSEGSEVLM
Sequence,phosphorylation enrichment [1],phosphorylation enrichment [2],phosphorylation enrichment [3],phosphorylation enrichment [4],phosphorylation enrichment [5],phosphorylation enrichment [6],phosphorylation enrichment [7],phosphorylation enrichment [8],phosphorylation enrichment [9],phosphorylation enrichment [10],phosphorylation enrichment [11],phosphorylation enrichment [12],phosphorylation enrichment [13],SH2 binding enrichment [14],SH2 binding enrichment [15],SH2 binding enrichment [16]
GGYNNYGYGSD [HNRNPH3_Y159_N163S],0.611,0.697,0.71,0.38,0.406,0.608,0.479,0.475,1.48,0.421,0.379,2.4,0.467,0.951,0.808,0.575
GHLFACDWISI [BEST1_Y227_Y227C_YF],0.711,1.01,0.937,0.386,0.613,0.531,0.396,0.469,0.408,0.487,0.45,0.522,0.639,0.749,0.945,0.806
GIVEDYRPRFF [ACVRL1_Y421_P424R_YF],0.816,0.814,0.811,0.459,0.467,0.681,0.626,0.427,0.616,0.513,0.372,0.468,0.655,0.468,0.985,0.832
GIVEDYRPTFY [ACVRL1_Y421_P424T],0.661,0.866,0.83,0.347,0.441,0.899,0.404,0.475,0.561,0.373,0.513,0.484,0.648,0.763,0.875,0.657
GIYSGYDDAWD [POLR1C_Y36_N32I],1.05,1.09,1.44,5.63,0.568,0.835,2.25,5.99,2.36,1.46,7.64,2.5,0.647,5.53,0.854,0.632
GKGGSYSKAEW [HLA-E_Y341],0.567,0.613,0.493,0.375,0.466,0.496,0.405,0.416,0.481,0.368,0.415,0.467,0.378,0.624,0.949,0.512
GLDGSYLLTDS [SH2D1A_Y29_R32T],0.697,0.863,0.864,0.469,0.483,0.551,0.369,0.435,0.491,0.455,0.423,0.541,0.604,0.505,0.683,0.648
GLETSYIEDNC [PAH_Y24_Q20L],0.873,0.937,1.04,0.513,0.655,0.744,0.497,0.487,0.585,0.466,0.525,0.569,0.564,0.539,0.726,0.617
GLPQTYCVSGP [DYSF_Y1684],0.609,0.978,0.978,0.524,0.497,0.583,0.605,0.631,0.72,0.559,0.629,0.667,0.655,0.611,0.839,0.528
GLVFLYMEKNQ [PRELP_Y156],1.17,1.18,0.932,0.37,0.339,0.854,0.262,0.337,0.607,0.635,0.304,0.523,0.719,0.634,0.979,0.873
GMAHNYRNSSQ [AASS_Y188],0.434,0.45,0.589,0.386,0.371,0.313,0.418,0.414,0.255,0.384,0.446,0.47,0.431,0.482,0.702,0.57
GPGLVYRVANK [FLNB_Y1833_G1834R],0.688,0.793,0.785,0.541,0.515,0.716,0.399,0.498,0.471,0.445,0.485,0.436,0.597,0.499,0.999,0.722
GPKSTYISSAG [GOLGA5_Y62_A67G],0.411,0.587,0.496,0.365,0.326,0.464,0.389,0.319,0.298,0.345,0.395,0.382,0.374,0.38,0.713,0.581
GSERDYTFDEL [EIF2S2_Y174_E177D_YF],1.21,1.18,1.25,0.639,0.583,0.837,0.515,0.528,0.577,0.582,0.474,0.564,0.871,0.508,0.919,0.681
GSERDYTFEEL [EIF2S2_Y174_YF],1.07,1.27,1.14,0.566,0.602,0.738,0.479,0.505,0.571,0.499,0.453,0.598,0.749,0.537,0.897,0.583
GTYVIYVRFSG [FLNB_Y1687_G1691S],1.31,1.3,1.26,0.532,0.447,0.941,0.455,0.514,0.696,0.639,0.509,0.543,0.828,0.587,1.05,1.44
GVLDIYGFEIL [MYO1A_Y382],0.978,1.14,1.14,1.76,0.579,0.695,0.41,1.59,0.903,0.694,2.92,0.541,0.787,0.343,0.793,0.574

Sequence,phosphorylation enrichment [1],phosphorylation enrichment [2],phosphorylation enrichment [3],phosphorylation enrichment [4],phosphorylation enrichment [5],phosphorylation enrichment [6],phosphorylation enrichment [7],phosphorylation enrichment [8],phosphorylation enrichment [9],phosphorylation enrichment [10],phosphorylation enrichment [11],phosphorylation enrichment [12],phosphorylation enrichment [13],SH2 binding enrichment [14],SH2 binding enrichment [15],SH2 binding enrichment [16]
HEEDNYIELIP [NWD2_Y566],2.21,2.29,3.19,1.3,6.02,1.89,1.33,1.02,2.98,1.27,0.905,1.91,5.2,0.458,0.53,0.793
HFEDGYPGGSD [CTNND1_Y221_YF],0.955,1.45,1.15,0.514,0.668,0.485,0.598,0.756,0.656,0.5,0.74,0.675,0.806,0.397,0.851,0.731
HGQVNYEEFVQ [CALM2_Y139_D134H],1.24,1.92,1.89,0.803,0.795,0.911,0.92,1.37,6.37,1.26,1.28,5.8,1.02,0.828,0.694,0.651
HGVSSYDTVIS [LDLR_Y465],0.911,1.15,1.19,0.441,0.801,0.779,0.811,0.846,0.515,0.638,0.818,0.865,0.706,6.43,0.936,0.795
HHLSTYTKMLF [CHST8_Y251_R247H],0.743,1.32,1.39,0.71,0.714,0.792,0.541,0.814,0.956,0.504,0.989,0.902,1.05,2.54,1.11,3.88
HLLRIYFDITD [MMP27_Y307_W304L_YF],2.05,2.46,1.99,0.791,0.874,1.87,0.568,0.733,1.53,0.846,0.491,0.891,1.68,0.536,0.85,0.464
HLPAGYIIPLQ [GAA_Y822_R819P],0.608,0.764,0.638,0.492,0.443,0.363,0.542,0.491,0.383,0.297,0.388,0.28,0.444,0.987,0.895,11.3
HLQDEYDFKCK [STAT1_Y170_D165H],1.5,1.59,1.33,0.871,0.581,0.776,0.884,0.589,0.621,0.471,0.631,0.585,0.924,0.423,0.797,0.48
HNLNFYKKTTN [FGFR3_Y648_D646N_YF],0.832,0.92,1.42,0.565,0.735,0.642,0.605,0.572,0.761,0.806,0.975,0.553,2.99,0.428,0.722,0.632
HQKKPYCHTHN [NRAP_Y53_A56T],3.44,2.33,1.88,0.794,1.27,1.21,0.627,1.13,1.7,1.34,1.04,0.854,3.53,1.08,1.45,1.55
HRLSTYTKMLF [CHST8_Y251],1.22,1.52,1.18,0.585,0.428,1.02,0.707,0.744,0.723,0.689,0.443,0.655,0.74,1.98,1.7,1.87
HRNNNYEPNLF [BRCA2_Y57_K53R],1.06,0.75,0.684,0.419,0.54,0.509,0.617,0.465,1.07,0.552,0.583,0.858,0.662,0.668,0.674,0.651
HSGLAYTMERS [GLUD1_Y512],0.985,1.26,0.933,0.763,0.403,0.56,0.521,0.383,0.897,0.561,0.685,0.495,0.543,0.314,0.698,0.733
HSYNSYTYPRL [PAK5_Y316],0.716,0.682,0.776,0.652,0.658,0.553,1.78,0.485,0.472,0.554,0.449,0.508,0.532,9.16,1.04,1.12
HTKKNYGNSSV [HDX_Y197_A193T],0.433,0.656,0.443,0.472,0.252,0.331,0.442,0.462,0.181,0.393,0.337,0.403,0.515,0.532,0.907,0.647
HVLEEYKPKQG [SAXO2_Y37_P34L],1.36,0.834,0.5,0.424,0.656,0.698,0.57,0.646,0.487,0.552,1.19,0.683,1.39,0.47,0.762,0.938
